B1: TPR 5TU (parent)
chain: GGAUCUUCUCGAUCUAACAAAAAAGACAAAUCUGCCACAAAGCUUGAGAGCAUCUUCGGAUGCAGAGGCGGCAGCCUUCGGUGGCGCGAUAGCGCCAACGUUCUCAACUAUGACACGCAAAACGCGUGCUCCGUUGAAUGGAGUUUAUCAUG

Fewer inactive variants are shown than the library holds. Some results are limits rather than exact numbers.

This note sets out measurements from the RNAGym collection of RNA variant scans (doi:10.1073/pnas.2313332121).

This series covers variants of B1. Description: polymerase ribozyme fitness, log enrichment relative to wild type (log ratio); higher = more active; in vitro selection for triplet polymerase activity. Summed up:
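Mutant libraries of each subunit of a heterodimeric triplet polymerase ribozyme were built by PCR and transcribed. Each library went through one round of in vitro selection in triplicate: annealing with biotinylated primer, partner subunit and triplets, frozen incubation at −7 °C, gel excision of extended constructs, streptavidin-bead capture and RT-PCR. Input and output libraries were Illumina-sequenced; only genotypes with ≥10 input reads and ≥1 read per output were kept. Fitness is log2(genotype enrichment/wild-type enrichment), using inverse-variance-weighted replicate averages.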
In the case of GGAUCUUCUCGAUCUAACAAAAAAGACAAAUCUGCCACAAAGCUUGAGAGCAUCUUCGGAUGCAGAGGCGGCAGCCUUCGGUAGCGCGAUAGCGCCAACGUUCUCAACUAUGACACGCAAAACGAGUGCUCCGUUGAAUGGAGUUUAUCAUG [G83A C125A], the “polymerase ribozyme fitness (log ratio)” value is -0.344. As for GGAUCUUCUCGAUCUAACAAAAAAGACAAAUCUGCCACAAAGCUUGAGAGCAUCUUCGGAUGCAGAGGCGGCAGCCUUCGGUGGCGCGAUAGCGCCUACGUUCUCAACUAUGACACGCAAAACGCGUGCUCCGUUGAAUGGAGUUUACCAUG [A97U U148C], the figure is -1.51.

For the variant GGAUCUUCUCGAUCUAACAAAAAAGACAAAUCUGCCACAAAGCUUGAGAGCAUCUUCAGAUGCAGAGGCGGCAGCCUUCGGUGGCGCGAUAGCGUCAACGUUCUCAACUAUGACACGCAAAACGCGUGCUCCGUUGAAUGGAGUUUAUCAUG [G58A C95U], the “polymerase ribozyme fitness (log ratio)” value was -0.535. To GGAUCUUCUCGAUCUAACAAAAAAGACAAAUCUGACACAAAGCUUGAGAGCAUCUUCGGAUGCAGAGGCGGCAGCCUUCGGUGGCUGGAUAGCGCCUACGUUCUUAACUAUGACACGCUAAACGCGUGCUCCGUUGAAUGGAGUUUAUCCUG [C35A G86U C87G A97U C105U A119U A150C] belongs no more than -4.2; to GGAUCUUCUCGAUCUAACAAAAAAGACAAAUCUGCCACAAAGCUUGAGAGCAUCUUCGGAUGCAGAGGCGGUAGCCUUCGGUGGCGCGAUAGCGCCAACGUUCUCAACUAUGACACGCAAAACACGUGCUCCGUUGAAUGGAGUUGAUCAUG [C72U G124A U146G], -1.3. On to GGAUCUUCUCGAUCUAACAAAAAAGACAAAUCUGCCACAAAGCUUGAGAGCAUCUUCGGAUGCAGAGGCGGCAGCCUGCGGUGGCGCGAUAGCGCCAACGUUCUCAACUAGGUCACGCAAAACGCGUGCUCCGUUGAAUGGAGUUUAUCAUG [U78G U111G A113U], for which the “polymerase ribozyme fitness (log ratio)” value was no more than -4.2.

Turning to GGAUCUGCUCGAUCUAACAAAAAAGAAAAAUCUGCCACAAAGCUUGAGAGCAUCUUCGGAUGCAGAGGCGGCAGCCUUCGGUGGCGCGAUAGUGCCAACGUUCUCAGCUAUGACACGCAAAACGCGUGCUCCGUUGAAUGGAGUUUAUCUUG [U7G C27A C93U A107G A150U], the “polymerase ribozyme fitness (log ratio)” value is no more than -4.2.

For the variant GGAUCUUCUCGAUCUAACAAAAAAGACAAAUCUGCCACAAAGCUUGAGAGCCUCUUCGGAUGCAGAGGCGGCAGCCUUCGGUGGCGCGAUAGCGCCAACGUUCUCGACUAUGACACGCAAAACGCGUGCUCCGUUGAACGGAGUUUAUCAUG [A52C A106G U139C], the “polymerase ribozyme fitness (log ratio)” value was no more than -4.2. Consider GGAACUUCUCGAUCUAACAAAAAUGACAAAUCUGCCACAAAGCUUGAGAGCAUCUUAGGAUGCAGAGGCGGCAGCCUUCGGUGGCGCGAUAGUUCCAACGUUCUCAACUAUGACACGCAAAACGCGUGCUCCGUUGAAUGUAGUUUAUCAUG [U4A A24U C57A C93U G94U G141U], for which the “polymerase ribozyme fitness (log ratio)” value is -2.67. As for GGAUCUUCUCGAUCUAACAAAAAAGACAAAUCUGCCACAAAGCUUGAGAGCAUCUUAGGAUGCCGAGGCGGCAGCCUUCGGUGGCGCGAUAGCGCCAACGUUCUCAACUAUGACACGCAAAACGCGUGGUCCGUUGAAUGGAGUUUAUCAUG [C57A A64C C129G], the figure is no more than -4.2; as for GGAUCUUCUCGAUCUAACAAAAAAGACAAAUCUGCCACAAAGCUUGACAGCAUCUUCGGAUGCAGAGGCGGCAGCCUUCGGUGGCGCGAUUGCGCCAACGUUCUCAACUAUGACACGCAAAACGCGUGCUCCGUUGAAUGGACUUUAUCAUG [G48C A91U G143C], no more than -4.2.

With GGAUCUUCUCGAUCUAACAAAAAAGACAAAUCUGCCACAAAGCUUGAGAACAUCGUCGGAUGCAGAGGCGGCAGCCUUCGGUGGCGCGAUAGCGCCGACGUGCUCAACUAUGACACGCAAAACGCGUGCUCCGUUGAAUGGAGUUUAUCAUG [G50A U55G A97G U102G], the “polymerase ribozyme fitness (log ratio)” value was -3.43.

In the case of GGAUCUUCUCGAUCUAACAAAAAAGACAAAUCUGCCACAAAGCUUGAGAGCAUCUUCGGAUGCAGAGGCGGCAGCUUUCGGUGGCGCGAUAGCGUCAACGUUCUCAACUAUGACACGCAAAACGCGUGCUCCGUCGAAUGGAGUUUAUAAUG [C76U C95U U135C C149A], the “polymerase ribozyme fitness (log ratio)” value is no more than -4.2. To GGAUCUUCUCGAUCUAACAAAAAAGACAAAUCUGCCACAAAGCUUGAGAGCAUCUUCGGAUGCAGAGCCGGCAGCCUUCGGUGGCGCGAUAGCGCCAAGGUUCUCAACUAUGACACGCAAAACGCGUGCUCCGUUGAAUGGAGUUUAUCAUG [G68C C99G] belongs no more than -4.2; to GGAUCUUCUCGAUCUAACAAAAAAGACAAAUCUGCCACAAAGCUUGAGAGCAUCUUAGGAUGCAGAGGCGGCAGCCUUCGGUGGCGCGAUAGCGCCAACGUUCUCAACUAUGACACGCAAAACGCGUGCUCCGUUGAAUGAAGUUUAUCAUU [C57A G141A G152U], -3.49. As for GGAUCUUCUCGAUCUACCAAAAAAGUCAAAUCUGCCACAAAGCUUGAGAGCAUCUUCGGAUGCAGAGGCGGCAGACUUCGGUGACGCGAUAGCGCCAACGUUCUCAACUAUGACACGCAAAACGCGUGCUCCGUUGAAUGUAGUUUAUCAUG [A17C A26U C75A G84A G141U], the figure is no more than -4.2; as for GGAUCUUCUCGAUCUAACAAUAACGUCAAAUCUGCCACAAAGCGUGAGAGCAUCUUCGGAUGCAGAGGCGGCAGCCUUCGGUGGCGCGUUGGCGCCAACGUUCUCAACUAUGACACGCAAAACGCGUUCUCCGUUGAAUCGAGUAUAUCAUG [A21U A24C A26U U44G A89U A91G G128U G140C U145A], no more than -4.2.

For the variant GGAUCUUCUCGAUCUAACAAAAAAGACAAAUCUGCCACAAAGCUUGAGAGCAUCUUCGGAUGCAGAGGCGGCAGCCUUCGGUGGCGCGAUAGCGCCAACGUUCUCAACUAUGACACGCAAAACGCGUGCUCCGUUGAAUGGAGUUUUUCAUG [A147U], the “polymerase ribozyme fitness (log ratio)” value stood at 1.1.

As to GGAUCUUCUCGAUCUAACAAAAAAGACAAAUCUGCCACAAAGCUUGAGAGCAUCUUCGGCUGCAGAGGCGGCAGCCUUCGGUGUCGCGAUAGCGCCAACGUUCUCAACUAUGACACGCAAAACGCGUGCUCCGUUGAAUGGAGUUUAUCAUG [A60C G84U], the “polymerase ribozyme fitness (log ratio)” value was -2.22.
